This is an account of results in article PMC2833280.

Residue numbers refer to the chain shown, from its start. Names may count otherwise.

Substrate in data set [1]: N=C(N)NCCC[C@H](NCCC(=O)O)C(=O)O
The data set can be described thus: purified protein. The data set is classed as biochemical, Streptomyces clavuligerus. Particulars: pH 8.8, 25 °C, saturating ATP (2-4 mM), ionic strength 0.1.

Substrate in data set [2]: O=C(O)C[C@@H]1CC[C@@H](C(=O)O)N1
The data set can be described thus: purified protein. Particulars: pH 8.3, 25 °C, 2 mM ATP, ionic strength 0.1. It is filed as biochemical, Streptomyces clavuligerus.

B1: β-LS (β-lactam synthetase) (Streptomyces clavuligerus; Y348F) (protein)
chain: MGAPVLPAAFGFLASARTGGGRAPGPVFATRGSHTDIDTPQGERSLAATLVHAPSVAPDRAVARSLTGAPTTAVLAGEIYNRDELLSVLPAGPAPEGDAELVLRLLERYDLHAFRLVNGRFATVVRTGDRVLLATDHAGSVPLYTCVAPGEVRASTEAKALAAHRDPKGFPLADARRVAGLTGVYQVPAGAVMDIDLGSGTAVTHRTWTPGLSRRILPEGEAVAAVRAALEKAVAQRVTPGDTPLVVLSGGIDSSGVAACAHRAAGELDTVSMGTDTSNEFREARAVVDHLRTRHREITIPTTELLAQLPYAVWASESVDPDIIEYLLPLTALYRALDGPERRILTGFGADIPLGGMHREDRLPALDTVLAHDMATFDGLNEMSPVLSTLAGHWTTHPYWDREVLDLLVSLEAGLKRRHGRDKWVLRAAMADALPAETVNRPKLGVHEGSGTTSSFSRLLLDHGVAEDRVHEAKRQVVRELFDLTVGGGRHPSEVDTDDVVRSVADRTARGAA
In general, Km refers to the substrate concentration at which the rate is half of its maximum. Broadly, the kcat is the number of substrate molecules converted per active site and unit of time at saturation. As a reminder, the kcat/Km is the second-order rate constant that governs catalysis at low substrate concentration. For B1, in the data set “purified protein [1]”, the Km was found to be 1400 ± 200 µM, the kcat came out at 0.155 ± 0.007 s⁻¹ and the kcat/Km was 110 ± 20 M⁻¹ s⁻¹.

B2: β-LS (β-lactam synthetase) (Streptomyces clavuligerus; Y348A) (protein)
chain: B1 chain with F348A
B2: in “purified protein [1]”, the Michaelis constant (Km) came out at 190 ± 20 µM, the kcat stood at 0.0082 ± 0.0002 s⁻¹ and the specificity constant (kcat/Km) was determined as 43 ± 4 M⁻¹ s⁻¹.

B3: β-LS (β-lactam synthetase) (Streptomyces clavuligerus) (protein)
chain: B1 chain with F348Y
For the protein B3, in “purified protein [2]”, the Michaelis-Menten constant (Km) was determined as 4900 ± 700 µM and the turnover number (kcat) came to 0.026 ± 0.002 s⁻¹.

B4: β-LS (β-lactam synthetase) (Streptomyces clavuligerus; E382D) (protein)
chain: B1 chain with F348Y, E382D
Consider B4, for which, in “purified protein [1]”, the Michaelis-Menten constant (Km) was found to be 2800 ± 200 µM, the kcat was 0.193 ± 0.006 s⁻¹ and the kcat/Km amounted to 69 ± 6 M⁻¹ s⁻¹.
